PMC3532415

Legend:
[1] = target: histone H3 1–15 K9me2 peptide (UniProt P68431); test: fluorescence polarisation; fluorescence-labelled peptide constant at 40 nM, SUV39H1 (42–100 or 44–106) titrated from low to high micromolar; 20 mM Tris-HCl pH 8.5 or 7.5, 150 mM NaCl, 1 mM DTT, 0.01% Tween-X-100; 10 µL in 384-well plates; fit to a hyperbolic function
[2] = target: histone H3 1–15 K9me3 peptide (UniProt P68431); test: as above

human SUV39H1 chromodomain (aa 42–100), complete chromodomain (from UniProt O43463 42-100) (domain or fragment)
Kd [1]: 29 µM | Kd [2]: 20 µM
